In publication PMC3220798 (2011):

Columns and labels:
[1] = system: CCCCCCCCCCCC(=O)Oc1ccc([N+](=O)[O-])cc1; assay: purified protein
[2] = system: CCCCCCCCCCCCCC(=O)Oc1ccc([N+](=O)[O-])cc1; assay: purified protein; conditions: myristate bound to Serβ[…]
[3] = system: CCCCCCCCCCCC(=O)Oc1ccc2c(C)cc(=O)oc2c1; assay: purified protein
PvdQ [4] = biological target: T1, PvdQ (Pseudomonas aeruginosa, UniProt Q9I194); assay: crystal structure, co-purified ligand; assay type: binding
PvdQ [5] = biological target: T1, PvdQ; assay: co-crystal structure; assay type: biochemical
PvdL module 1 (PvdLM1) = PvdL module 1 (PvdLM1) (Pseudomonas aeruginosa, UniProt Q9I157); assay: ATP/[…]-pyrophosphate exchange assay; assay type: biochemical

T1 sequence (Q9I194 24-193): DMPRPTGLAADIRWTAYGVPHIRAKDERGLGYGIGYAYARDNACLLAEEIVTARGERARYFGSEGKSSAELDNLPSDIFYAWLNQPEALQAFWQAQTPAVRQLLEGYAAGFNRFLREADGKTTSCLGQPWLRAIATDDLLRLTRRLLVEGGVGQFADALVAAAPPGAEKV
T1 sequence (Q9I194 217-762): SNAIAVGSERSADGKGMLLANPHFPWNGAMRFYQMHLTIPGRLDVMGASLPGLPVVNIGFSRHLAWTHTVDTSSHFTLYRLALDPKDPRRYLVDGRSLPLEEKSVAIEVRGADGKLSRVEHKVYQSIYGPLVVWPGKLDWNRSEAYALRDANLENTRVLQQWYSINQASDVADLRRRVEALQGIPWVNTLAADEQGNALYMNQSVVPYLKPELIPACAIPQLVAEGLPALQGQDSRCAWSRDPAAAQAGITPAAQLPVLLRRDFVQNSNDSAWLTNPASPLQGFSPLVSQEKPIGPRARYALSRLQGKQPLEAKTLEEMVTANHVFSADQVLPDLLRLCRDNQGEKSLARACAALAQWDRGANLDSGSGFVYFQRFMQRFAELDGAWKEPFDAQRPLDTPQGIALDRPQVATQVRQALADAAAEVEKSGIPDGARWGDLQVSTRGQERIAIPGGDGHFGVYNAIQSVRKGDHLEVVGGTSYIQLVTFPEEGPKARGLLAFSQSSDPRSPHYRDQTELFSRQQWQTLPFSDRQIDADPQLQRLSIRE

PvdQ (Pseudomonas aeruginosa PAO1)
Km [1]: 11400 µM | kcat [1]: 1.99 s⁻¹ | kcat/Km [1]: 175 M⁻¹ s⁻¹ | Km [2]: 1400 µM | kcat [2]: 0.74 s⁻¹ | kcat/Km [2]: 521 M⁻¹ s⁻¹ | Km [3]: 750 µM | kcat [3]: 1.24 s⁻¹ | kcat/Km [3]: 1660 M⁻¹ s⁻¹

CCCCCCCC(=O)O [octanoate]
crystal structure, co-purified ligand (PvdQ [4]): co-purifying octanoate molecule bound non-covalently in the fatty acid binding pocket

O=c1onc2n1-c1cc(Br)ccc1OC2 [compound 922, 4H-8-Bromo-1,2,4-oxadiazolo[3,4-d]benz[b][1,4]oxazin-1-one]
IC50 (PvdQ [5]): 145 µM

CCCCCCCCCCCCCC(=O)O [C14, myristate]
CPM (×10^3) ^a (PvdL module 1 (PvdLM1)): 160.0 ± 14.1 CPM (×10^3)
